The text below walks through data of patent publication US7696168 (TUFTS MEDICAL CENTER, dated 2010).

The star is where a group is joined. Palmitoyl = CCCCCCCCCCCCCCCC(=O)*

Experiment [1] has as its target T1, human cholecystokinin B receptor (CCKB) (human, UniProt P32239 1-447).
T1 sequence (looked up): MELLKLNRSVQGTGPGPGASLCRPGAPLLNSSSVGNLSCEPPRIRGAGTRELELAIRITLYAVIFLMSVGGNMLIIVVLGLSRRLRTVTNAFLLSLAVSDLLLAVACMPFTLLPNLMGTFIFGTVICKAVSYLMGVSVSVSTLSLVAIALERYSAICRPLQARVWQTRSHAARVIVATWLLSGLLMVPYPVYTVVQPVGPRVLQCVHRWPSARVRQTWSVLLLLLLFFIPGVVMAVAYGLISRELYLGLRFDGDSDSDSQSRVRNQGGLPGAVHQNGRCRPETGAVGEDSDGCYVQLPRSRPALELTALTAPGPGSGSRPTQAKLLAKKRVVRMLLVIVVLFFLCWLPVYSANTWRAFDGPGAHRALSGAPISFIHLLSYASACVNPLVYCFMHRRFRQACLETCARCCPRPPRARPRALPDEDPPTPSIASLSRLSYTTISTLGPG
Description: cell-based or functional assay.

In experiment [2] the target is T2, human PAR1 (human, UniProt P25116 42-425).
T2 sequence (looked up): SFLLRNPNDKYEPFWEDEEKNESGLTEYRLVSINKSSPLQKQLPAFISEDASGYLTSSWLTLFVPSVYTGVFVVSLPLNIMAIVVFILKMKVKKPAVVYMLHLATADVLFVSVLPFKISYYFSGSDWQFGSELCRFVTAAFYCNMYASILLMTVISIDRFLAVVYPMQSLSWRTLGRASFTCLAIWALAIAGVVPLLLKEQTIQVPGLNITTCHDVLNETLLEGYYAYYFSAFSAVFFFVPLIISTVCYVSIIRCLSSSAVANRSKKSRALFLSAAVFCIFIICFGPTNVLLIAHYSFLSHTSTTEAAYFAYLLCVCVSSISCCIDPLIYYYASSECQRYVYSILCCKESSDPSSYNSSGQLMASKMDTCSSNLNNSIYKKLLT
Description: cell-based or functional assay.

B1: Bpal-18 (Pal-SGSRPTQAKLLAKKRVVR) (peptide)
peptide: Palmitoyl-SGSRPTQAKLLAKKRVVR-NH2
SMILES: CCCCCCCCCCCCCCCC(=O)N[C@@H](CO)C(=O)NCC(=O)N[C@@H](CO)C(=O)N[C@@H](CCCNC(=N)N)C(=O)N1CCC[C@H]1C(=O)N[C@H](C(=O)N[C@@H](CCC(N)=O)C(=O)N[C@@H](C)C(=O)N[C@@H](CCCCN)C(=O)N[C@@H](CC(C)C)C(=O)N[C@@H](CC(C)C)C(=O)N[C@@H](C)C(=O)N[C@@H](CCCCN)C(=O)N[C@@H](CCCCN)C(=O)N[C@@H](CCCNC(=N)N)C(=O)N[C@H](C(=O)N[C@H](C(=O)N[C@@H](CCCNC(=N)N)C(N)=O)C(C)C)C(C)C)[C@@H](C)O
On to B1, for which, in experiment [1], the “Agonist EC50 (activating phase, InsP formation)” value (“Agonist EC50” below) worked out at 1.5 µM; the “Agonist Efficacy (% of full response to 300 nM CCK-8)” value is 12%; the “Agonist IC50 (inhibitory phase, InsP formation)” value was 10 µM.

B2: P1pal-12 (Pal-RCLSSSAVANRS) (peptide)
peptide: Palmitoyl-RCLSSSAVANRS-NH2
SMILES: CCCCCCCCCCCCCCCC(=O)N[C@@H](CCCNC(=N)N)C(=O)N[C@@H](CS)C(=O)N[C@@H](CC(C)C)C(=O)N[C@@H](CO)C(=O)N[C@@H](CO)C(=O)N[C@@H](CO)C(=O)N[C@@H](C)C(=O)N[C@H](C(=O)N[C@@H](C)C(=O)N[C@@H](CC(N)=O)C(=O)N[C@@H](CCCNC(=N)N)C(=O)N[C@@H](CO)C(N)=O)C(C)C
With B2, the “Antagonist IC50 (InsP formation, against 0.1 nM thrombin)” value in experiment [2] was found to be 5 µM.
On the same count and under the same terms, in the case of Palmitoyl-KKSRALF-NH2 [P1pal-7 (Pal-KKSRALF)] it was 1.2 µM.

B3: P1pal-19E (Pal-RCESSSAEANRSKKERELF) (peptide)
peptide: Palmitoyl-RCESSSAEANRSKKERELF-NH2
SMILES: CCCCCCCCCCCCCCCC(=O)N[C@@H](CCCNC(=N)N)C(=O)N[C@@H](CS)C(=O)N[C@@H](CCC(=O)O)C(=O)N[C@@H](CO)C(=O)N[C@@H](CO)C(=O)N[C@@H](CO)C(=O)N[C@@H](C)C(=O)N[C@@H](CCC(=O)O)C(=O)N[C@@H](C)C(=O)N[C@@H](CC(N)=O)C(=O)N[C@@H](CCCNC(=N)N)C(=O)N[C@@H](CO)C(=O)N[C@@H](CCCCN)C(=O)N[C@@H](CCCCN)C(=O)N[C@@H](CCC(=O)O)C(=O)N[C@@H](CCCNC(=N)N)C(=O)N[C@@H](CCC(=O)O)C(=O)N[C@@H](CC(C)C)C(=O)N[C@@H](Cc1ccccc1)C(N)=O
As for B3, in experiment [2], the “Agonist EC50” value came out at 2.5 µM; the “Agonist Efficacy (% of full response to extracellular agonist)” value turned out to be 11%; the “Agonist IC50 (inhibitory phase, InsP formation)” value came out at 80 µM; the “Antagonist IC50 (InsP formation, against 0.1 nM thrombin)” value is above 50 µM.

B4: P1pal-13 (Pal-AVANRSKKSRALF) (peptide)
peptide: Palmitoyl-AVANRSKKSRALF-NH2
SMILES: CCCCCCCCCCCCCCCC(=O)N[C@@H](C)C(=O)N[C@H](C(=O)N[C@@H](C)C(=O)N[C@@H](CC(N)=O)C(=O)N[C@@H](CCCNC(=N)N)C(=O)N[C@@H](CO)C(=O)N[C@@H](CCCCN)C(=O)N[C@@H](CCCCN)C(=O)N[C@@H](CO)C(=O)N[C@@H](CCCNC(=N)N)C(=O)N[C@@H](C)C(=O)N[C@@H](CC(C)C)C(=O)N[C@@H](Cc1ccccc1)C(N)=O)C(C)C
As to B4, in experiment [2], the “Agonist EC50” value came to 0.7 µM and the “Agonist IC50 (inhibitory phase, InsP formation)” value worked out at 32 µM.
